The record followed here is PMC2288801.

Assay [1] concerns the target laminin from the Engelbreth-Holm-Swarm murine tumor (mouse) (UniProt P19137).
Assay [2] deals with human plasma fibronectin (human). As to the kind of experiment: ligand affinity chromatography.
The target of another assay is collagen type I (UniProt P02452).
The target of assay [3] is human plasma fibronectin (human).

UniProt P02452, sequence (P02452 162-1218, chain 1 of 2): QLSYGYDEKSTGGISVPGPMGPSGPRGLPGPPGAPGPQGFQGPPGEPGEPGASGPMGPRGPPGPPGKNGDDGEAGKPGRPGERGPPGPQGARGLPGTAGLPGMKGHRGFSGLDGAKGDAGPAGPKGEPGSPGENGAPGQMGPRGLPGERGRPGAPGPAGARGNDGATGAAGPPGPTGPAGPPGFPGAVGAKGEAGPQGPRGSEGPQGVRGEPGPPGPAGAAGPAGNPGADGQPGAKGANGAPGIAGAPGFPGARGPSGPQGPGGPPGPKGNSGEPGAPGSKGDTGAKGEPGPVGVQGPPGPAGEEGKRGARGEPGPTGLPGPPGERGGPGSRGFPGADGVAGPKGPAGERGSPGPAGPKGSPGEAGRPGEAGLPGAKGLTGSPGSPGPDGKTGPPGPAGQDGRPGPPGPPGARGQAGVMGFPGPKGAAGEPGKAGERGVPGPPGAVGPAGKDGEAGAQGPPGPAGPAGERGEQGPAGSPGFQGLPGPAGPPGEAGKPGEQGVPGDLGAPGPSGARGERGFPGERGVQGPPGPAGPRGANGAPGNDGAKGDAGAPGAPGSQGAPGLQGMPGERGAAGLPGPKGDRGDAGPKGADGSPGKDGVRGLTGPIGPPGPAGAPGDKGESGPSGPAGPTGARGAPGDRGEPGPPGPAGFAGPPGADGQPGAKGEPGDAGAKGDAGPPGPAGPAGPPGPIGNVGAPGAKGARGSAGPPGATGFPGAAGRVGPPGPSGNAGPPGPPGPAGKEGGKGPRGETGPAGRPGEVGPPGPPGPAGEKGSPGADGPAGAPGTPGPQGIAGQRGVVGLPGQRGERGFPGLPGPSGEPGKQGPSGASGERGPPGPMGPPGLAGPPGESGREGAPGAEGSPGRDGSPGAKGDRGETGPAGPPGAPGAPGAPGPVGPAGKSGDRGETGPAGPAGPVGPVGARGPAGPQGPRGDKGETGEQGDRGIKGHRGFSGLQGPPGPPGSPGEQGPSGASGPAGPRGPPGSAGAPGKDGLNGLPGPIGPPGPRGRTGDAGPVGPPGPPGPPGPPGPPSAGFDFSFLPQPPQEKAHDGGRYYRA
UniProt P02452, sequence (P08123 80-1119, chain 2 of 2, further chain): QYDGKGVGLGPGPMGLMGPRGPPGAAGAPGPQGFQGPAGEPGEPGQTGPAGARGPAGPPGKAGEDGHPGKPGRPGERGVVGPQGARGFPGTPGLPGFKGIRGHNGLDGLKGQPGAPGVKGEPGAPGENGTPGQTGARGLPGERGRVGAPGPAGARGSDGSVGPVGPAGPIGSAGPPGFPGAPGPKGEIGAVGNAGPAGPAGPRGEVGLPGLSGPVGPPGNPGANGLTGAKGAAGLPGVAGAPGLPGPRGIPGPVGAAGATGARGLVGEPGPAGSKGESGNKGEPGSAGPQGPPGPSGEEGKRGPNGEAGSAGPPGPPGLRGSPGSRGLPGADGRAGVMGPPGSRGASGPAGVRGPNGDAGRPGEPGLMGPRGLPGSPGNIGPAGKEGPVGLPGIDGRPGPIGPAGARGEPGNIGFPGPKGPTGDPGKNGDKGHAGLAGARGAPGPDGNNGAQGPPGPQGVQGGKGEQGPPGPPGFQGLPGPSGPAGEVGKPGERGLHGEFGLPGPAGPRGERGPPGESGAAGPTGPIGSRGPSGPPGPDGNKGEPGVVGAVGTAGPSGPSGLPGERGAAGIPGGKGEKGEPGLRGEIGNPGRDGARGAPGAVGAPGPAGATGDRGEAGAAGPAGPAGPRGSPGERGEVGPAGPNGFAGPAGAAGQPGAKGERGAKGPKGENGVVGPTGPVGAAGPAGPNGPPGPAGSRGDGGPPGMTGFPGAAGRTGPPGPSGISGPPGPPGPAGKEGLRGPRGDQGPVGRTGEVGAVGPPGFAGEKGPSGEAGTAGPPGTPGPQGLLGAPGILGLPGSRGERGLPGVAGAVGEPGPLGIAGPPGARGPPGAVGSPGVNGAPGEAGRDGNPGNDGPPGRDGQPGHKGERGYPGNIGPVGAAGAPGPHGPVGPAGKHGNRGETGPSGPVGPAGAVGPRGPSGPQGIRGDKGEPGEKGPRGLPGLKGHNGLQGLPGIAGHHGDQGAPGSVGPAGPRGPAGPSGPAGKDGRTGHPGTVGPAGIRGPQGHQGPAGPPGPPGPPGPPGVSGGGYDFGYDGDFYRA

With “integrin VLA-6 (alpha6 beta1) (from UniProt P05556 21-798) (receptor)”, in assay [1], the inhibition of LOX cell attachment to Lm by anti-VLA-6 mAb (GoH3) amounted to 77% and the inhibition of NCI-H69 cell attachment to Lm by anti-VLA-6 mAb GoH3 came out at 53%.

As for “integrin VLA-3 (alpha3 beta1) from LOX melanoma cells (from UniProt P05556 21-798) (receptor)”, the percent of VLA-3 bound to the column in assay [2] worked out at 100%.

For “integrin VLA-2 (alpha2 beta1) from LOX melanoma cells (from UniProt P17301;P05556) (receptor)”, the inhibition of LOX cell attachment to Coll type I by anti-VLA-2 mAb (5E8) in the assay with collagen type I is 76%.

Substance “integrin VLA-5 (alpha5 beta1) from LOX melanoma cells (from UniProt P05556 21-798) (receptor)” returned an inhibition of LOX cell attachment to Fn by anti-VLA-5 mAb (P1D6) in assay [3] of 85%.

In the assay with collagen type I, “integrin VLA-3 (alpha3 beta1) from NCI-H69 small cell lung carcinoma cells (from UniProt P05556 21-798) (receptor)” displayed a Table II: inhibition of binding by Ca++ relative to Mg++ (ligand Coll-I,IV) of 15% and a Table II: stimulation of binding by Mn++ relative to Mg++ (ligand Coll-I,IV) of 1.4 fold.
